In article PMC7674646, “Structural and Functional Analyses of the Transcription Repressor DgoR From Escherichia coli Reveal a Divalent Metal-Containing D-Galactonate Binding Pocket” (Frontiers in Microbiology, 2020):
Substitutions are numbered along the chain they refer to.

How the values were obtained:
Test in all cases: EMSA
Conditions in all cases: EMSA: 25 mM Tris-HCl pH 8.0, 50 mM KCl, 2.5 mM MgCl2, 5% glycerol, 1 mM DTT, 100 ug/mL salmon sperm DNA, 100 ng Cy5 probe in 20 ul, 25 C 20 min; native PAGE at …
[1] = target: T1, DgoR (EcoDgoR) WT (Escherichia coli) (UniProt P31460)
T1 sequence: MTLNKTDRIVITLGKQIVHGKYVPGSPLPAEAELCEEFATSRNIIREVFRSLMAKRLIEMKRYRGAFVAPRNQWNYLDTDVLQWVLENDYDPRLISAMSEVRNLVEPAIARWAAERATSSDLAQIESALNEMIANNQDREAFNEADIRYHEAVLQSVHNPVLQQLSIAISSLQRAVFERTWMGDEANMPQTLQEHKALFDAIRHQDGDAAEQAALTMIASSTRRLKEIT

[2] = target: T2, DgoR D146A D146A (Escherichia coli) (UniProt P31460)
T2 sequence: T1 sequence with D146A

[3] = target: T3, DgoR D184A D184A (Escherichia coli) (UniProt P31460)
T3 sequence: T1 sequence with D184A

[4] = target: T4, DgoR H150A H150A (Escherichia coli) (UniProt P31460)
T4 sequence: T1 sequence with H150A

[5] = target: T5, DgoR H195A H195A (Escherichia coli) (UniProt P31460)
T5 sequence: T1 sequence with H195A

[6] = target: T6, DgoR Q173A Q173A (Escherichia coli) (UniProt P31460)
T6 sequence: T1 sequence with Q173A

[7] = target: T7, DgoR R102A R102A (Escherichia coli) (UniProt P31460)
T7 sequence: T1 sequence with R102A

[8] = target: T8, DgoR R179A R179A (Escherichia coli) (UniProt P31460)
T8 sequence: T1 sequence with R179A

[9] = target: T9, DgoR R224A R224A (Escherichia coli) (UniProt P31460)
T9 sequence: T1 sequence with R224A

[10] = target: T10, DgoR R224E R224E (Escherichia coli) (UniProt P31460)
T10 sequence: T1 sequence with R224E

[11] = target: T11, DgoR S221A S221A (Escherichia coli) (UniProt P31460)
T11 sequence: T1 sequence with S221A

[12] = target: T12, DgoR T191A T191A (Escherichia coli) (UniProt P31460)
T12 sequence: T1 sequence with T191A

[13] = target: T13, DgoR W181A W181A (Escherichia coli) (UniProt P31460)
T13 sequence: T1 sequence with W181A

For “TGTAAAACGACGGCCAGTGCATTGTTCTTTTTGTGATCTAAATTGTAGTACAACAATATAAGTTTGTACTACATTACACGCACGGCAAACGCGAACGTCATCACGCTGGTACTACAAAGTTGCCGCGTTATGCATCGATCGGGGTAAAGTAGAGAAGAACATACAGAGCACAAGGACTCTCCATGACTCTCAATAAAACCGATCGCATTGTC (double strand) [dgo cis-acting element (promoter region)]”, the binding [1] was “binds”, the binding [2] was “binds” and the binding [3] was “binds more weakly”. For the same sequence, the binding [4] was “binds more weakly”, the binding [5] was “binds more weakly” and the binding [6] was “binds more weakly”. For the same sequence, the binding [7] was “binds more weakly”, the binding [8] was “binds” and the binding [9] was “binds more weakly”. For the same sequence, the binding [10] was “binds more weakly”, the binding [11] was “binds” and the binding [12] was “binds more weakly”. The binding [13] was “binds”.
